This is an account of results in paper PMC11488477, “TDP-43 Amyloid Fibril Formation via Phase Separation-Related and -Unrelated Pathways” (ACS Chemical Neuroscience, 2024).

This data set deals with the molecule itself. Briefly: thioflavin T fluorescence + negative-stain TEM; protein alone in buffer with ThT, 20 uM (higher at pH 4 and 5), pH 4-7, 0-300 mM NaCl, 1% DMSO, 96-well plate, 30 °C; long-period assays (Figure 5) incubated without shaking; self-assembly into amyloid fibrils.

B1: C-terminal domain of TDP-43 (residues 266-414), wild type (domain or fragment, UniProt Q13148 266-414, looked up)
chain: SNRQLERSGRFGGNPGGFGNQGGFGNSRGGGAGLGNNQGSNMGGGMNFGAFSINPAMMAAAQAALQSSWGMMGMLASQQNQSGPSGNNQNQGNMQREPNQAFGSGNNSYSGSNSGAAIGWGSASNAGSGSGFNGGFGSSMDSKSSGWGM
notes: TDP-43, C-terminal domain (intrinsically disordered region), residues 266-414; UniProt entry Q13148; also called TDP-43's IDR; wild-type TDP-43
B1: the binding result is “binds”.
